From the nanobody polyreactivity screen of Harvey et al. (2022)

Test: yeast display, Sf9 membrane polyspecificity reagent, FACS + sequencing; frameworks hold sequencing errors
Method in brief: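 Sorting gates, low and high (top ~1%), were placed on anti-HA fluorescence to track expression and on streptavidin fluorescence to track reagent binding. A clone's polyreactivity label is taken from the gate it came out of. The reagent was 10% biotinylated, detergent-solubilized Sf9 membrane, applied for 1 hour at 4 °C to galactose-induced yeast display cells.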

Row | Sequence | polyreactivity (PSR sort gate)
1 | QVQLGESGGGLDQAGGSLRLSCAASGRTFTNNAMGWYRQAPGKERELVAAITSGGRTNYADSVKGRFTISRDNAKNTVYLQMNSLKPEDTAVYYFAARIPSDGYYYWGQGTQVTVSS | high polyreactivity
2 | QVQLVESGGGLVQAGGSLRLSCAASGRIFYLNVMGWYRQAPGKERELVAAITRRDVTTYADSVKGRFTISRDNAKNTVYLQMKSLKPEDTAFYYCNAVYYNWIGFDYWGQGTQVTVSS | low polyreactivity
3 | QVKLVESGGCLVQEGGSHRLSCAASGYIFDAYAMGWYRQAPGQERELVAAIDIGGSTYYADSVKGRFTISRDNAKNTVYLQMNSLKPEDTAVYYCAVWFYFDQWDYAREYWGQGTQVTVSS | low polyreactivity
4 | QVQLVESGGGLVQAGGSLRLSCAPSGRTFRTNTMGWYRQAPGKESELVAAINWRGGSTYYADSVKGRFTISRDNAKNTVYLQMNSLKPEDTAVYYCNAQQGRYKYSGRYDYWGQGTQVTVSS | low polyreactivity
5 | QVQLVESGGGLVQAGGSLRLSCAASGSNFDYYAMGWYRQAPGKERELVAAISSTDGSTFYADSVKGRFTISRDNAKNTVYLQMNSLKPEDTAVYYCAVVGYYYPWPNGYDYWGQGTQVTVSS | low polyreactivity
6 | QVQLQESGGGLVQAGGSLRLSCAASGTITVLYKMAWFRQEPGKEREFVASINYGTSTYYADSVKGRFTVSRDSAKNTVYLQMNSLKPEDTAVYYCAAAYRWQDVYRYWGQGTQVTVSS | low polyreactivity
7 | QVQLVESGGGLVQAGGSLRLSCAASGRTFRINTMGWYRQAPGKERELVATITGSGGSTYYADSVKGRFTISRDNAKNTVYLQMNSLKPEDTAVYYCAVRWYDQVSRRGIGYYWGQGTQVTVSS | low polyreactivity
8 | QVQLVESGGGLVQAGGSLRLSCAASGSTFGYNAMGWYRQAPGKERELVADITWRGGRTYYADSVKGRFTISRDNAKNTVYLQMNSLKPEDTAVYYCAATSRGSGQRPGEAIIDYYYWGLGTQVTVSS | high polyreactivity
9 | QVQLVESGGGLVQAGGSLRLSCAASGRIFTIYAMGWYRQAPGKERELVATISRRGGSTYYADSVKGRFTISRDNAKNTVYFQMNSLKPEETAVYYCAADSVITWWAYDYWGQGTQVTVSS | high polyreactivity
10 | QVQLVESGGGLVKAGGILSLSCAASGRTFAFYGMGSYRQAPGKERELVATIRGTGGSTYYADSVKGRFTISRDNAKNTVYLQMNSLKPEDTAVYYCAAVNRRYPRYDYWGLGTQVTVSS | high polyreactivity
11 | QVQLVESGGGLVQAGGSLRLSCAASGRTFYSYAMGWYRQAPGKEREFVAAISVRGVITYYADSVKGRFTISRDNAKNTVYLQMNSLKPEDTAVYDCAADWSGYYTYDYWGQGTQVTVSS | low polyreactivity
12 | QVQLVESGGGLVQAGGSLRLSCAASGSTFPLNAMGWYRQAPGKERELVASINFGGGTTYYADSVKGRFTISRDNAKNTVYLQMNSLKPEDTAVYYCAADVYRGTYRRDYWGQGTQVTVSS | high polyreactivity
13 | QVQLVESGGGLVQAGGSLRLSCAASGSIFDDYAMGWYRQAPGKERELVAAISWSGGSTYYADSVKGRFTISRDNAKNTVYLQMNSLKPEDTAVYYCAAYDYDYLYGEYYWGQGTQVTVSS | low polyreactivity
14 | QVQLVESGGGLVQAGGSLRLSCAASGSIFNYYAMGWYRQAPGKERDLVAAITTSGGNTYYADSVKGRFTISRDNAKNTVYLLMYSLKPEDTAVYYCAADYWASGGEYDYWGQGTQVSVSS | low polyreactivity
15 | QVQLVESGGGLVQAGGSLRLSCAASGSILDSNAMGWYRQAPGKERELVAAITSGGSTYYADSVKGRFTISRDNAKNTVYLLMNSLKPEDTAVYYCAAAYLGYGAVQPSYEGGYWGQGTQVTVSS | low polyreactivity
16 | QVQLVESGGGLVQAGGSLRLSCAASGRIFPGYAMGLYRQAPGKERELVAAISKGGGSTSYADSVKGRFTISRDNAKNTVYFQMNSLKPEDTAVYFCAARQAWRWTYDYWGQGTQVSVSS | high polyreactivity

Row | Sequence | polyreactivity (PSR sort gate)
17 | QVQLVDSGGGLVQAGGSLRLTCAASGTFYYYAMGWNRQAPGKERELVAAISYSGGRTYYADSVKGRFTISRDNAKNTVYLQMNSLKPEDTAFYYCNTDARSKKYIFDFDYWGQGTQVTLSS | high polyreactivity
18 | QVQLVESGGGLVQAGGSLRLSCAASGRTFYYNDMGWYRQAPGKERELVATISSGGSTYYADSVKGRFTISRDNAKNTVYLQMNSLKPEDTAVYYCAKRRRYDGWYAGPLYKYDYWGQGTQVTVSS | low polyreactivity
19 | QVQLVESGGGLVQAGGSLRLSSAASGSIFGPYAMGWYRQAPGKERELVAAITWTGGRTYYADSVKGRFTISRDNAKKTVYLQMHSLKPEDTAVDYCAADYSPSTWYLYYTLYYYWGQGTQVTVSS | low polyreactivity
20 | QVQLVESGGGLVQAGGSLRLSCAASGITFYRNAMGWYRQATGKERELVAAITSGTSTYYADSVKGRFTISRDNAKNTVYLQMNSLKPEDTAVYYCAKRTPPGYYGFDYWGQGTQVTVSS | low polyreactivity
21 | QVQLVESGGGLVQAGGSLRLSCAGSGRTVANNAMGWYRQAPGKERELVAAISNGDSPYADSVKGRFTISRDNAKNTVYLQLNSLKPEDTAVYYCATRTQEDYTGDYWGQGTQVTVSS | low polyreactivity
22 | QVQLVESGGGLVQAGGSLRLSCAASGLIFVDYTMGWYRQAPGKERELVAGISNSGNTNYADSVKGRFTISRDNAKNTVYLQMNSLKPEDTAVYYCAAVYTWYPWYPYDYWGQGTQVTVSS | low polyreactivity
23 | QVQLVESGGGLVQAGGSLRLSCAASGSTFQWYTMGWYRQAPGKERECVAAISRSGGRTYYADSVKGRFTISRDNAKNTVYLQMNSLKPVDTAVYYCAKYYYLYWSSQRDYWGQGTQVTVSS | high polyreactivity
24 | QVQLVESGGGLVQAGGSLRLSCAASGRTFGRYAMGWYRQAPGKERELVATITSGGSTNYADSVKGRFTISRDNAKNTVYLQMNSLKPEDTAVYYCAAEFSPSRWAYSEGALRYHYWGQGTQVTVSS | low polyreactivity
25 | QVQLVESGGGLVQAGGILRLSCASSGSTFPTNAMGWYTQAPGKERELVAAISSSGGRTYYADSVKGRFTISRDNAKNTVDLQMNSLKPEDTAVYSCAAVWWRAYAVRMYYWGQGTQVTVSS | high polyreactivity
26 | QVQLVESGGGLVQAGGSLRLSCAASGIIFRLNAMGWYRQAPGKERELVAAMRRRGGSTYYADSVKGRFTISRDNAKNTVYLQMNSLKPEDTAVYYCAKDPVTTFYKYDYWGQGTQVTVSS | low polyreactivity
27 | QVQLVESGGGLVQAGGSLRLSCAASGSIFFTYVMGWYRQAPGKERELVAAISSDDNTNYADSVKGRFTISRDNAKNTVYLQMNSLKPEDTAVYYCNADTTLYPYYDYGYYDYDYWGQGTQVTVSS | low polyreactivity
28 | QVQLVESGGGLVQAGGSLRLSCAASGSTFYGYGMGWYSQAPGKERELVAAITKSVGSTYYADSVNGRFTISRDNAKNTVYLQMNSLKPEDTAVYYCARSTRYRRGPSQYAGTYDYWGQGTQVTVSS | low polyreactivity
29 | QVHLEESGGRLVQEGGSLRISCAASGSILRSYAMGWYRQAPGKERELVAVINRGTSTNYADSVKGRFTISRDNAKNTVYLQMNSVKPEDTAVYYCAVAVLPWQLDSESYAEYDYWGEGTQVTVSS | low polyreactivity
30 | QVQLVESGGGLVQAGGTLRLSCAASVSTIAQNAMGWYRQAPGKEREFVAAITGTVGSTYYADSVKGRFTISRDNAKNTVYLQMKSLKPEDTAVYYCNTRGFNGRVYPYDYWGQGTQVTVSS | low polyreactivity
31 | QVQLVESGGGLVQAGDSLRLSCGASGRTFYPYAMGWYRQAPGKERELVAAITWSGGSTYYADSVKGRFTISRDNAKNTVYLQMNSLKPEDTAVYFCNAAELTYDLYDYCGQGTQVTVSS | low polyreactivity
